Measured values: paper PMC5743566 (Theranostics, 2018)

Assays:
Assay in all cases: immunostaining of cells or tissue
HBx of HBV genotype D = HBx of HBV genotype D (Hepatitis B virus genotype D, strain …, UniProt P03165, strain)
HBx of HBV genotype C = HBx of HBV genotype C (Hepatitis B virus genotype C, strain …, UniProt P0C686, strain)
HBx of HBV genotype A = HBx of HBV genotype A (Hepatitis B virus genotype A, strain …, UniProt P69713, strain)

Measured: binding result

B1: 9D11 mAb (antibody, V domains shown)
VH: QVQLQQPGAELVRPGASVKLSCKASGYSFTSFWISWVKQRPGQGLEWIAMIHPSDNGIRFNQKFKDKATLTVDKSSSTAYMQLNSPTSEDSAVYFCARAGTATFTYWGQGTLVTVSA
VL: DIQMTQTTSSLSVSLGDRVTISCRASQDISNYLNWYQQKPDGIVKLLIYYTSRLHSGVPSRFSGSGSGTDYSLTISNLEQEDLATYFCQQGNALPWTFGGGTKLEIK
binds: all assays above
